This data set concerns the molecule itself. Nature of the data set: cryo-EM structure; single-particle cryo-EM; purified protein at 6–7 mg/mL in digitonin, mixed with 2.9 mM FFC8; refined with C2 symmetry.

The stoichiometry N is the number of molecules, sites or subunits per partner or assembly.

Residue numbers refer to the chain shown, from its start. Names and notes keep the numbering of the source.

B1: Mus musculus full-length TMEM120A (TACAN, residues 1–343), wild type (natural protein, UniProt Q8C1E7 1-343, looked up)
chain: MQSPPPDPLGDCLRNWEDLQQDFQGIQETHRLYRLKLEELTKLQANCTNSITRQKKRLQELALVLKKCRPSLPSESMEAAQELENQMKERQGLFFDMEAYLPKKNGLYLSLVLGNVNVTLLSKQAKFAYKDEYEKFKLYLTIILIVISFTCRFLLNSRVTDAAFNFLLVWYYCTLTIRESILINNGSRIKGWWVFHHYVSTFLSGVMLTWPDGLMYQKFRNQFLSFSMYQSFVQFLQYYYQSGCLYRLRALGERHTMDLTVEGFQSWMWRGLTFLLPFLFFGHFWQLFNALTLFNLARDPECKEWQVLMCGFPFLLLFLGNFFTTLRVVHQKFHSQQHGNKKD
notes: TMEM120A (TACAN), Mus musculus, full length, residues 1-343; the model of the structure holds residues 9-72, 76-250 and 262-335; A PreScission protease site lies between TACAN and the C-terminal eGFP; residues of the cut site probably stay on the C-terminus (surmised; expected monomer mass printed as 41,770 Da); Synthetic gene (GeneWiz); also called TACAN^WT; M. musculus TACAN; source: HEK293S …
Regarding B1, the “stoichiometry N” value stood at 2.

B2: Mus musculus TACAN (TMEM120A) His196Ala, His197Ala mutant (natural protein, UniProt Q8C1E7 1-343, looked up)
chain: B1 chain with H196A, H197A
notes: TMEM120A (TACAN), Mus musculus, full length, residues 1-343, with H196A and H197A; the model of the structure holds residues 9-72, 76-250 and 262-335; Same construct as m1 with the two mutations; co-purified with coenzyme A (small molecule); Expected monomer mass printed as 41,637 Da; also called TACAN^(H196A H197A); His196Ala His197Ala mutant TACAN; source: HEK293S GnTI- cells, BacMam …
Turning to B2, the binding result is recorded as “binds”.
